According to PMC2244710, “The Gammaherpesvirus m2 Protein Manipulates the Fyn/Vav Pathway through a Multidocking Mechanism of Assembly” (PLoS ONE, 2008):
Square brackets hold non-standard residues; d marks the D form. Ends that are not written are not given here. * marks the point of attachment. Biotin = O=C1N[C@H]2[C@H](CS[C@H]2CCCCC(=O)*)N1; pY = N[C@@H](Cc1ccc(OP(=O)(O)O)cc1)C(=O)O

Target: T1, GST fusion of the SH2 domain of mouse Fyn (residues 145-247) (mouse, UniProt P39688 145-247)
T1 construct: SH2 domain of mouse Fyn, residues 145-247; Cloned into pGEX-6P-1; also called GST-SH2 (Fyn); SH2 domain of Fyn; source: Escherichia coli, IPTG induction, purified with glutathione-sepharose beads
Experiment: pull-down; 10 µg of biotinylated pY120 peptide incubated with increasing amounts of purified GST proteins overnight at 4°C; recovered with streptavidin-conjugated beads; anti-GST immunoblot
Details: both partners purified

T1 sequence (P39688 145-247): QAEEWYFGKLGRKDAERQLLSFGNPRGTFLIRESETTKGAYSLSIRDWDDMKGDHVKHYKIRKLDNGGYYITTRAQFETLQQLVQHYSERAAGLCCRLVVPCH

B1: N-terminal biotinylated, tyrosine phosphorylated M2 peptide incorporating Y120 (SPEENIpYETANSE) (peptide)
peptide: Biotin-SPEENI[pY]ETANSE
notes: region of M2 of MHV-68 incorporating Y120; numbers count on: the final spliced form of the protein; also called pY120 peptide; phosphorylated Y120 peptide; source: synthetic peptide, bought: Sigma
B1: binds.
